Experimental data published in patent US12692524B2, “Sialyltransferases and their use in producing sialylated oligosaccharides” (Chr. Hansen A/S, priority 2017, dated 2026).

Columns and labels:
[1] = In vitro sialylation of LNT by protein extracts, LST-a/-b quantified by LC-MS/MS; type: biochemical; details: for Ranking in the screening for sialylation of LNT: in words
Method in brief: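 E. coli BL21(DE3) crude extracts overexpressing sialyltransferases (IPTG 0.3 mM, 12–16 h at 30 °C) incubated 16 h with 5 mM LNT and 10 mM CMP-Neu5Ac in 50 mM Tris-HCl pH 7.5, 5 mM MgCl2. LST-a and LST-b measured by HILIC LC-MS/MS, MRM in ESI negative mode, against commercial standards.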

[2] = In vitro kinetics (Km, Vmax), acceptor substrate LNT; type: biochemical; details: 30° C., pH7.5, protein extract
Method: To rank the best performing sialyltransferases, their Km values for donor and acceptor substrates were determined in vitro. Escherichia coli BL21(DE3) strain #287 was used for overproduction of the enzymes. Cells were incubated in 100 ml 2YT medium in shaking flasks supplemented with 100 μg m^−1 ampicillin at 30° C. until an OD600 of 0.3 was reached. Then, 0.3 mM IPTG was added and the incubation was continued for 12 to 16 hours. Cells were harvested by centrifugation and mechanically disrupted in a defined volume of 50 mM Tris-HCl pH7.5 using glass beads. The protein extract was kept on ice until the assay started. The in vitro assay was carried out in a total volume of 50 μl including 50 mM Tris-HCl pH7.5, 5 mM MgCl2 and varying concentrations of CMP-Neu5Ac (0.05-30 mM) as well as of lactose or LNT (0.1-50 mM). The assay started with the addition of 35 to 750 μg protein extract. After 1 to 10 minutes of incubation at 30° C., the assay was inactivated at 95° C. for 5 minutes. Product formation was determined by mass spectrometry. Data were evaluated using the enzyme kinetic module of SigmaPlot v12.5 to calculate Km and Vmax.
Their kinetic parameters for CMP-Neu5Ac and LNT as well as lactose are depicted in Table 6.

[3] = 5 mM LNT, 10 mM CMP-Neu5Ac, 16 hours, LC-MS/MS, relative quantity, n.d.: not detectable

B1: SiaT9: sialyltransferase of Vibrio sp. JT-FAJ-16, acc. BAF91160, SEQ ID NO: 2 (protein, listed as Vibrio sp.)
chain: MNNDNSTTTNNNAIEIYVDRATLPTIQQMTKIVSQKTSNKKLISWSRYPITDKSLLKKINAEFFKEQFELTESLKNIILSENIDNLIIHGNTLWSIDVVDIIKEVNLLGKNIPIELHFYDDGSAEYVRIYEFSKLPESEQKYKTSLSKNNIKFSIDGTDSFKNTIENIYGFSQLYPTTYHMLRADIFDTTLKINPLRELLSNNIKQMKWDYFKDFNYKQKDIFYSLTNFNPKEIQEDFNKNSNKNFIFIGSNSATATAEEQINIISEAKKENSSIITNSISDYDLFFKGHPSATFNEQIINAHDMIEINNKIPFEALIMTGILPDAVGGMGSSVFFSIPKEVKNKFVFYKSGTDIENNSLIQVMLKLNLINRDNIKLISDI
Relative efficacy of sialyltransferases regarding in-vitro production of sialyllacto-N-tetraoses: LST-a [1, 3]: 8.39 × 10^3
Ranking in the screening for sialylation of LNT [1]: best performing α-2,3-sialyltransferases for LST-a production
Km [2]: 2900 µM
Vmax LNT [2]: 0.15 µmol/min

B2: SiaT19: sialyltransferase of Photobacterium leiognathi JT-SHIZ-145, acc. BAF91416, SEQ ID NO: 30 (protein, listed as Photobacterium leiognathi)
chain: MNDNQNTVDVVVSTVNDNVIENNTYQVKPIDTPTTFDSYSWIQTCGTPILKDDEKYSLSFDFVAPELDQDEKFCFEFTGDVDGKRYVTQTNLTVVAPTLEVYVDHASLPSLQQLMKIIQQKNEYSQNERFISWGRIRLTEDNAEKLNAHIYPLAGNNTSQELVDAVIDYADSKNRLNLELNTNTGHSFRNIAPILRATSSKNNILISNINLYDDGSAEYVSLYNWKDTDNKSQKLSDSFLVLKDYLNGISSEKPNGIYSIYNWHQLYHSSYYFLRKDYLTVETKLHDLREYLGGSLKQMSWDTFSQLSKGDKELFLNIVGFDQEKLQQEYQQSELPNFVFTGTTTWAGGETKEYYAQQQVNVVNNAINETSPYYLGREHDLFFKGHPRGGIINDIILGSFNNMIDIPAKVSFEVLMMTGMLPDTVGGIASSLYFSIPAEKVSFIVFTSSDTITDREDALKSPLVQVMMTLGIVKEKDVLFWC
Relative efficacy of sialyltransferases regarding in-vitro production of sialyllacto-N-tetraoses: LST-b [1, 3]: 157
Ranking in the screening for sialylation of LNT [1]: sialylate LNT most efficiently among the tested α-2,6-sialyltransferases
Km [2]: 2900 µM
Vmax LNT [2]: 0.04 µmol/min
